The sequences below were run on Escherichia coli TOP10 (assay: shrunken log2 fold change of peptide-encoding DNA abundance (4.5 h post-induction vs induction); higher = less antimicrobial activity (less host growth inhibition)). Details: time post-induction: 4.5 h; library: site-saturation at positions 5, 18, 19, 20.
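Also: peptides expressed intracellularly from a pBAD plasmid library in pooled LB shake-flask culture, induced with 0.3% L-arabinose, DNA abundance read by NGS, three biological replicates, DESeq2 with apeglm shrinkage.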

Sequence	shrunken log2 fold change
RRIRVRPPRLPRPRPRPSRTPRP	-0.47
RRIRSRPPRLPRPRPRPQHMPRP	-0.336
RRIRNRPPRLPRPRPRPMLWPRP	0.0244
RRIRSRPPRLPRPRPRPNTLPRP	-0.373
RRIRERPPRLPRPRPRPRMVPRP	-0.462
RRIRCRPPRLPRPRPRPSLSPRP	-0.429
RRIRVRPPRLPRPRPRPRKSPRP	0.337
RRIRDRPPRLPRPRPRPEFWPRP	1.02
RRIRCRPPRLPRPRPRPTRKPRP	-0.0442
RRIRKRPPRLPRPRPRPNLCPRP	0.118
RRIRVRPPRLPRPRPRPDWCPRP	0.0302
RRIRPRPPRLPRPRPRPIPSPRP	0.00576
RRIRMRPPRLPRPRPRPDIIPRP	1.42
RRIRPRPPRLPRPRPRPLIDPRP	-0.0112
RRIRPRPPRLPRPRPRPCSSPRP	-0.467
RRIRERPPRLPRPRPRPHSPPRP	-0.372
RRIRNRPPRLPRPRPRPPSLPRP	-0.0145
RRIRKRPPRLPRPRPRPWKFPRP	0.0297
RRIRNRPPRLPRPRPRPKVQPRP	0.341
RRIRERPPRLPRPRPRPSQHPRP	-0.49

Sequence	shrunken log2 fold change
RRIRLRPPRLPRPRPRPYVLPRP	-0.0278
RRIRWRPPRLPRPRPRPRWSPRP	0.372
RRIRMRPPRLPRPRPRPMFLPRP	-0.273
RRIRKRPPRLPRPRPRPYAMPRP	0.202
RRIRDRPPRLPRPRPRPFLPPRP	-0.358
RRIRMRPPRLPRPRPRPNSEPRP	0.128
RRIRWRPPRLPRPRPRPGMVPRP	0.628
RRIRLRPPRLPRPRPRPCHAPRP	-0.235
RRIRHRPPRLPRPRPRPFEYPRP	-0.219
RRIRPRPPRLPRPRPRPNPGPRP	0.0588
RRIRFRPPRLPRPRPRPEMLPRP	0.0583
RRIRMRPPRLPRPRPRPPEHPRP	0.353
RRIRERPPRLPRPRPRPNQQPRP	-0.112
RRIRHRPPRLPRPRPRPFGIPRP	-0.0887
RRIRCRPPRLPRPRPRPDENPRP	-0.0357
RRIRMRPPRLPRPRPRPHQNPRP	0.114
RRIRCRPPRLPRPRPRPIFWPRP	0.235
RRIRQRPPRLPRPRPRPSDRPRP	-0.264
RRIRSRPPRLPRPRPRPNDVPRP	-0.134
RRIRNRPPRLPRPRPRPKKGPRP	0.0558

Sequence	shrunken log2 fold change
RRIRTRPPRLPRPRPRPRWPPRP	0.424
RRIRVRPPRLPRPRPRPALEPRP	0.495
RRIRGRPPRLPRPRPRPRCNPRP	0.551
RRIRLRPPRLPRPRPRPGDWPRP	0.618
RRIRNRPPRLPRPRPRPNFIPRP	-0.105
RRIRMRPPRLPRPRPRPCMHPRP	0.14
RRIRKRPPRLPRPRPRPQNGPRP	-0.178
RRIRKRPPRLPRPRPRPAWVPRP	0.483
RRIRPRPPRLPRPRPRPIHRPRP	-0.0135
RRIRERPPRLPRPRPRPRQRPRP	0.32
RRIRPRPPRLPRPRPRPRCGPRP	0.282
RRIRLRPPRLPRPRPRPEEWPRP	0.119
RRIRCRPPRLPRPRPRPKIIPRP	-0.932
RRIRERPPRLPRPRPRPSDVPRP	-0.182
RRIRHRPPRLPRPRPRPSMQPRP	-0.124
RRIRGRPPRLPRPRPRPYGCPRP	-0.091
RRIRLRPPRLPRPRPRPAQGPRP	0.376
RRIRHRPPRLPRPRPRPLGYPRP	-0.0228
RRIRLRPPRLPRPRPRPADDPRP	-0.088
RRIRPRPPRLPRPRPRPFHWPRP	0.0105

Source: the supplement of paper PMC9112550, “Optimization of the antimicrobial peptide Bac7 by deep mutational scanning” (BMC Biology, 2022)
